In patent US20130336947:

Tests used:
[1] = tested on: ZF11xHunt-Kox-1 (Artificial); test: cell_activity
[2] = tested on: ZF6xHunt-Kox-1 (Artificial); test: cell_activity; settings: htt mRNA (up to 2.5-fold); protein up to 2-fold; STHdh Q111/Q111, 20 days
Sequence of ZF6xHunt-Kox-1 (Artificial) (chain, as listed by the source): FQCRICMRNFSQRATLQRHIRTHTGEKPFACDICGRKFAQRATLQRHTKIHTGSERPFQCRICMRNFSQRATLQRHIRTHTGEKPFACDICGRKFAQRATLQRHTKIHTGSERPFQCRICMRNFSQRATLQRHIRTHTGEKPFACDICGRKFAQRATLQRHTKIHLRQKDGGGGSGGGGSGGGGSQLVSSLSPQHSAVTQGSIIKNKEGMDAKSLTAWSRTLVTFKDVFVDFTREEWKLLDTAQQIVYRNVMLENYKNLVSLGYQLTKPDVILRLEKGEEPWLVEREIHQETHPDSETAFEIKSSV

Sequence of ZF11xHunt-Kox-1 (Artificial) (chain, as listed by the source): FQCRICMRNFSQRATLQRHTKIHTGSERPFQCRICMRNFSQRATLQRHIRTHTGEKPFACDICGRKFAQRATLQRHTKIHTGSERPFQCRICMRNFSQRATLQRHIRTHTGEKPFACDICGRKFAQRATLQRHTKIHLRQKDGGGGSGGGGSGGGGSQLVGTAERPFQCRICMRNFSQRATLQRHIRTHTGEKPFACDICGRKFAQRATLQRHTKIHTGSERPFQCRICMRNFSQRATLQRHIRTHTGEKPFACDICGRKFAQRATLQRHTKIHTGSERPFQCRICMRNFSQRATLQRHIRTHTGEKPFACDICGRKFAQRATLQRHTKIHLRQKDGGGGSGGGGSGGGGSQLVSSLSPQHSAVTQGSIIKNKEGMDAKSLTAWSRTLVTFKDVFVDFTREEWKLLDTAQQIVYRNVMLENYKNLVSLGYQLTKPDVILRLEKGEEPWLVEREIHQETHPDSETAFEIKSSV

R6/2 mutant HTT transgene
activity (% mRNA reduction) ([1]; AAV2/1 striatal delivery, R6/2 mice, week 6, average): > 45

STHdh Q111 mutant htt locus
activity (% mRNA reduction) ([1]; protein reduced 95%, STHdh Q111/Q111, 20 days): 80
activity (fold repression) [2]: < 2.5
